According to patent publication US20210388097A1 (SORRENTO THERAPEUTICS, published 2021):
Residue numbers refer to the chain shown, from its start.

What was measured:
[1] = target: T1, his-tagged mouse BCMA protein (ACROBiosystems, catalog # BCA-M52H3) (mouse, UniProt O88472 1-49); assay: ELISA, his-tagged BCMA on Ni-NTA plate at 2 µg/mL, anti-human Fc HRP
T1 construct: Bought protein; not shown: his tag
T1 chain (looked up): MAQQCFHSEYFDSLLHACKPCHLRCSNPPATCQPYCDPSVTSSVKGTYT
Description: Cross-reactivity of the anti-BCMA antibodies with his-tagged BCMA protein from human, cynomolgus or mouse, were analyzed by ELISA assay. The Ni-NTA plate was coated with his-tagged BCMA proteins (listed in Example 2 above) at 2 μg/mL, then reacted with an anti-BCMA antibody at 20 μg/mL, and reacted with anti-human Fc HRP (KPL Scientific, catalog #5220-0279) at 1:2500 dilution. […] Each set includes 5 test antigens or buffer, from left to right: negative control antigen, his-tagged mouse BCMA protein, his-tagged cynomolgus BCMA protein, his-tagged human BCMA protein, and Dulbecco's Phosphate-Buffered Saline.

[2] = target: T2, Wild type human BCMA protein-mouse Fc (human); assay: bio-layer interferometry, antibody (100 nM) loaded on AR2G sensor, BCMA-mouse Fc in solution
T2 construct: also called wild type human BCMA-mouse Fc; wild type BCMA protein
T2 chain: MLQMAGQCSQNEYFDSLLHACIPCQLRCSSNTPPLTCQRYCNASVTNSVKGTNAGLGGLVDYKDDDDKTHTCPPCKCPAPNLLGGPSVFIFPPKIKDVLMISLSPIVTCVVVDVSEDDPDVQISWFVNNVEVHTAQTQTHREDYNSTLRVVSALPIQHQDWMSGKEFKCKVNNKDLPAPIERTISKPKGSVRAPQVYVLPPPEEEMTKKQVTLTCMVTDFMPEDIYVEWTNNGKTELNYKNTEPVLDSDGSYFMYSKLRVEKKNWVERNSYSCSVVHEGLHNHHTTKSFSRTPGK
Description: (§1) The results of the protein-protein binding assays described in Example 8 were used to design an epitope mapping assay using bio-layer interferometry. Various anti-BCMA antibodies (2C5, 2E1, 4C9, 6G8, Bluebird C11D5, GSK J6M0, or isotype control) (100 nM) were loaded onto AR2G sensors and reacted with buffer or one of three types of human BCMA proteins including: including: wild type human BCMA-mouse Fc (SEQ ID NO:5), mutant-1 human BCMA-mouse Fc (double mutation 17G-18G; SEQ ID NO:6), or mutant-2 human BCMA-mouse Fc (mutation del32-35G; SEQ ID NO:7).

[3] = target: T3, Mutant-1 human BCMA protein-mouse Fc (human); assay: as above
T3 construct: also called mutant-1 human BCMA-mouse Fc (17G-18G); mutant-1 BCMA protein
T3 chain: T2 chain with L17G, L18G
Description: as §1

[4] = target: T4, his-tagged human BCMA protein (ACROBiosystems, catalog # BCA-H522y-100 ug) (human, UniProt Q02223 1-54); assay: SPR (Biacore T200, 25 C), antibody captured on anti-human Fc, his-tagged human BCMA as analyte, 1:1 binding model
T4 construct: limits of the bought construct are not otherwise stated; also called recombinant his-tagged human BCMA; not shown: his tag of the bought protein
T4 sequence: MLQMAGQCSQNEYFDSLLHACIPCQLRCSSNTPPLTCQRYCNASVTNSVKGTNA
Description: Binding kinetics of anti-BCMA antibodies with his-tagged human BCMA protein (ACROBiosystems, catalog # BCA-H522y-100 ug, UniProt Q02223-1, SEQ ID NO:92) was measured using surface plasmon resonance (SPR). Kinetic interactions between the antibodies and his-tagged BCMA proteins were measured at 25° C. using Biacore T200 surface plasmon resonance (GE Healthcare). Anti-human fragment crystallizable region (Fc region) antibody was immobilized on a CM5 sensor chip to approximately 8000 resonance units (RU) using standard N-hydroxysuccinimide/N-Ethyl-N′-(3-dimethylaminopropyl) carbodiimide hydrochloride (NHS/EDC) coupling methodology. The anti-BCMA antibody (2 μg/mL) was captured for 60 seconds at a flow rate of 10 μL/minute. The his-tagged BCMA protein was run at six different dilutions of 3.12, 6.25, 12.5, 25, 50, 100 and 200 nM, in a running buffer of 0.01 M HEPES pH 7.4, 0.15 M NaCl, 3 mM EDTA, 0.05% v/v Surfactant P20 (HBS-EP+). The 25 nM BCMA protein run was measured two times. All measurements were conducted in HBS-EP+ buffer with a flow rate of 30 μL/minute. A 1:1 (Langmuir) binding model was used to fit the data. The SPR sensorgrams of anti-BCMA antibodies BCA7, GSK J6M0, BC4C9 and BC5C4 are shown in FIGS. 1, 2, 3 and 4, respectively, and their corresponding binding kinetics are listed in Table 3.

B1: GSK J6M0 antibody (GSK anti-BCMA Ab) (antibody, V domains shown)
VH: QVQLVQSGAEVKKPGSSVKVSCKASGGTFSNYWMHWVRQAPGQGLEWMGATYRGHSDTYYNQKFKGRVTITADKSTSTAYMELSSLRSEDTAVYYCARGAIYDGYDVLDNWGQGTLVTVSS
VL: DIQMTQSPSSLSASVGDRVTITCSASQDISNYLNWYQQKPGKAPKLLIYYTSNLHSGVPSRFSGSGSGTDFTLTISSLQPEDFATYYCQQYRKLPWTFGQGTKLEIK
notes: Comparator anti-BCMA antibody; captured by anti-human Fc in SPR, so it carries a human Fc; also called GSK antibody
Which results are given for B1?
binding result [1]: no binding (tested: 20 µg/mL); binding result [2]: binds; binding result [3]: binds; Kd [4]: 2.52 nM; koff [4]: 0.000496 s⁻¹; kon [4]: 197000 M⁻¹ s⁻¹
